{"source": "patent US20070116694A1", "about": "“Inhibitor of interaction of granzyme b with golgin-160” (Daiichi Pharmaceutical Co., Ltd., priority 2003, published 2007)", "target": "T1, Granzyme B (Homo sapiens, UniProt P10144)", "T1 construct": "purchased Calbiochem 368042", "T1 sequence (P10144 21-247)": "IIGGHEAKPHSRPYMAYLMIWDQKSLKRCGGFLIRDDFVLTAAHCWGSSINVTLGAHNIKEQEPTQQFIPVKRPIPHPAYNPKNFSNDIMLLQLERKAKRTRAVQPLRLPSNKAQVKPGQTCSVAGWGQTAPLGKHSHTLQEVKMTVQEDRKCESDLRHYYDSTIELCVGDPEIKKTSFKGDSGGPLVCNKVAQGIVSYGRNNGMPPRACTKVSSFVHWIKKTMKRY", "assay": "in vitro protease assay (decomposition by Granzyme B)", "type": "biochemical", "conditions": "Granzyme B 0.05 μg, substrate protein 0.2 μg, 37° C. for 2 hours, SDS-PAGE, Coomassie Brilliant Blue", "procedure": "An in vitro protease assay was carried out to confirm in an experiment whether or not Golgin-160 is decomposed by Granzyme B. Granzyme B, Human, cell culture-derived (Calbiochem, Catalog No. 368042) was purchased, and this product was used as Granzyme B. Granzyme B (0.05 μg) was added to 10 μl of a cleavage buffer containing TRX-Golgin-160, procaspase-3, or TRX-LAG 3 (0.2 μg each) (wherein the buffer consisted of 50 mM Hepes-KOH (pH 7.4), 2 mM EDTA, 1% NP-40, 0.1 M NaCl, and 10 mM DTT) (Kam C. M., Huding D., et al., “Granzymes (lymphocyte serine proteases): characterization with natural and synthetic substrates and inhibitors” in Biochim. Biophys. Acta, 1477:307-323 (2000)). The obtained mixture was incubated at 37° C. for 2 hours. After completion of the incubation, 2×SDS sample buffer (125 mM Tris-HCl (pH 6.8), 4% (w/v) sodium dodecyl sulfate, 20% (v/v) glycerol, 0.01% (w/v) bromophenol blue, and 20% (v/v) 2-mercaptoethanol) was added at an equivalent amount to each reaction solution, and the obtained mixture was heated for 5 minutes. Thereafter, the obtained reaction mixture was separated by SDS-PAGE and then stained with Coomassie Brilliant Blue. Thus, a protein and a decomposition product thereof were observed.", "data": [{"molecule": "Procaspase-3: Recombinant Human procaspase-3 (MBL/BioVision), positive control in the in vitro protease assay of Granzyme B (protein, UniProt P42574 1-277, looked up, pro-form, Recombinant Human procaspase-3 (MBL/BioVision), positive control in the in vitro protease assay of Granzyme B) pro-form: MENTENSVDSKSIKNLEPKIIHGSESMDSGISLDNSYKMDYPEMGLCIIINNKNFHKSTGMTSRSGTDVDAANLRETFRNLKYEVRNKNDLTREEIVELMRDVSKEDHSKRSSFVCVLLSHGEEGIIFGTNGPVDLKKITNFFRGDRCRSLTGKPKLFIIQACRGTELDCGIETDSGVDDDMACHKIPVEADFLYAYSTAPGYYSWRNSKDGSWFIQSLCAMLKQYADKLEFMHILTRVNRKVATEFESFSFDATFHAKKQIPCIVSMLTKELYFYH", "values": [{"measurement": "decomposition by Granzyme B", "value": "decomposed"}]}]}
